Source: patent publication US20210115100A1

What was measured:
Assay in all cases: cell-based or functional assay
[1] = molecular target: wild type human mature BMP7 (SEQ ID NO: 2) (human) (UniProt P18075)
[2] = molecular target: human pro-BMP7 protein variant F9 (human) (UniProt P18075)
[3] = molecular target: human mature BMP7 protein variant F9 (SEQ ID NO: 8) (human) (UniProt P18075)
[4] = molecular target: wild type human pro-BMP7 (human) (UniProt P18075)
Chain of wild type human pro-BMP7 (human) (P18075 293-431, chain 1 of 2): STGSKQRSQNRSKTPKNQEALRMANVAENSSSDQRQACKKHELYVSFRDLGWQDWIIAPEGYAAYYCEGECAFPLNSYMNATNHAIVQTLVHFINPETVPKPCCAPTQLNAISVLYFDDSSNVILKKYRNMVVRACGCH
Chain of wild type human pro-BMP7 (human) (P18075 other isoform, or with tags, fused parts or gaps, chain 2 of 2): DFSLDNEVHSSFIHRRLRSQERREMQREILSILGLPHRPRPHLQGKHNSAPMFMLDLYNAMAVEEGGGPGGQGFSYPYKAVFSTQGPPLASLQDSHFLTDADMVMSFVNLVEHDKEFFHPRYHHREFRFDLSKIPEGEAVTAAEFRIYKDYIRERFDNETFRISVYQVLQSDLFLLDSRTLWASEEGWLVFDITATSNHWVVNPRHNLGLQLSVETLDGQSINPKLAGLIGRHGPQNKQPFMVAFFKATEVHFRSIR

Chain of human pro-BMP7 protein variant F9 (human) (P18075 other isoform, or with tags, fused parts or gaps mutant, chain 1 of 2): as the sequence (P18075 293-431, chain 1 of 2) above, with Y65G, I86L, F93V, N110G, Y128W counted along it
Chain of human pro-BMP7 protein variant F9 (human) (P18075 other isoform, or with tags, fused parts or gaps mutant, chain 2 of 2): as the sequence (P18075 other isoform, or with tags, fused parts or gaps, chain 2 of 2) above
Chain of human mature BMP7 protein variant F9 (SEQ ID NO: 8) (human) (P18075 other isoform, or with tags, fused parts or gaps mutant): as the sequence (P18075 293-431, chain 1 of 2) above, with Y65G, I86L, F93V, N110G, Y128W counted along it
Chain of wild type human mature BMP7 (SEQ ID NO: 2) (human) (P18075 293-431): as the sequence (P18075 293-431, chain 1 of 2) above

Row | % inhibition, 0.1X molar excess of inhibitor (hepcidin promoter luciferase, Hep3B2 HepPro luc cells) [1] | % inhibition, 1X molar excess of inhibitor (hepcidin promoter luciferase, Hep3B2 HepPro luc cells) [1] | % inhibition, 10X molar excess of inhibitor (hepcidin promoter luciferase, Hep3B2 HepPro luc cells) [1] | % inhibition, 100X molar excess of inhibitor (hepcidin promoter luciferase, Hep3B2 HepPro luc cells) [1] | % inhibition, 0.1X molar excess of inhibitor (hepcidin promoter luciferase, Hep3B2 HepPro luc cells) [2] | % inhibition, 1X molar excess of inhibitor (hepcidin promoter luciferase, Hep3B2 HepPro luc cells) [2] | % inhibition, 10X molar excess of inhibitor (hepcidin promoter luciferase, Hep3B2 HepPro luc cells) [2] | % inhibition, 0.01X molar excess of inhibitor (hepcidin promoter luciferase, Hep3B2 HepPro luc cells) [3] | % inhibition, 0.1X molar excess of inhibitor (hepcidin promoter luciferase, Hep3B2 HepPro luc cells) [3] | % inhibition, 1X molar excess of inhibitor (hepcidin promoter luciferase, Hep3B2 HepPro luc cells) [3] | % inhibition, 10X molar excess of inhibitor (hepcidin promoter luciferase, Hep3B2 HepPro luc cells) [3] | % inhibition, 0.1X molar excess of inhibitor (hepcidin promoter luciferase, Hep3B2 HepPro luc cells) [4] | % inhibition, 1X molar excess of inhibitor (hepcidin promoter luciferase, Hep3B2 HepPro luc cells) [4] | % inhibition, 10X molar excess of inhibitor (hepcidin promoter luciferase, Hep3B2 HepPro luc cells) [4] | % inhibition, 100X molar excess of inhibitor (hepcidin promoter luciferase, Hep3B2 HepPro luc cells) [4] | % inhibition, 100X molar excess of inhibitor (hepcidin promoter luciferase, Hep3B2 HepPro luc cells) [2] | Binder
1 | -23.6% | -25.9% | 37.6% | 77.4% | -35.4% | -27.5% | 7% | 2.3% | 7% | 7.3% | 28.5% | -10.2% | 4% | 17.4% | 81.6% | – | Coco (protein, UniProt Q8N907 23-189, looked up, species assumed) DAN domain family member 5: RPEPQSPRPQSWAAANQTWALGPGALPPLVPASALGSWKAFLGLQKARQLGMGRLQRGQDEVAAVTLPLNPQEVIQGMCKAVPFVQVFSRPGCSAIRLRNHLCFGHCSSLYIPGSDPTPLVLCNSCMPARKRWAPVVLWCLTGSSASRRRVKISTMLIEGCHCSPKA
2 | -12.2% | 36.7% | 72.8% | 73.7% | -15.2% | -18.3% | -23.6% | -2.6% | -7.2% | -6.9% | -1.2% | -5.3% | 24.8% | 84.8% | 87.3% | -28.1% | Noggin (protein, UniProt Q13253 28-232, looked up, species assumed) Noggin: QHYLHIRPAPSDNLPLVDLIEHPDPIFDPKEKDLNETLLRSLLGGHYDPGFMATSPPEDRPGGGGGAAGGAEDLAELDQLLRQRPSGAMPSEIKGLEFSEGLAQGKKQRLSKKLRRKLQMWLWSQTFCPVLYAWNDLGSRFWPRYVKVGSCFSKRSCSVPEGMVCKPSKSVHLTVLRWRCQRRGGQRCGWIPIQYPIISECKCSC
